Experimental data from the supplement of paper PMC10567573.

B1: NEUROD6 (parent)
chain: YHSPELTTPPGHGTLDNSKSMKPY
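Also: lentivirally expressed fusions sorted by FACS into six bins by GFP to DsRed ratio, PSI derived from sequencing read proportions per bin multiplied by bin number.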

Variants of: B1
Test: protein stability index of a GFP-peptide fusion (GPS, HEK-293T) (PSI 1-6); higher = more stable
Details: c terminus: a fixed tail appended
YHSPELTTPPGHGTLDNSKSPKPY [M21P] gave a protein stability index of 2.62. Variant YHSPELTTPPGHGTLDNSKSSKPY [M21S] has a protein stability index of 2.18. For YHSPELTTPPGHGTLDNSKSNKPY [M21N], the protein stability index was 2.82. Variant YHSPELTTPPGHGTLDNSKSCKPY [M21C] has a protein stability index of 2.42. YHSPELTTPPGHGTLDNSKSDKPY [M21D] gave a protein stability index of 2.39. YHSPELTTPPGHGTLDNSKSKKPY [M21K] showed a protein stability index of 2.36. In the case of YHSPELTTPPGHGTLDNSKSTKPY [M21T], the protein stability index is reported as 2.67. YHSPELTTPPGHGTLDNSKSVKPY [M21V] gave a protein stability index of 2.42. YHSPELTTPPGHGTLDNSKSRKPY [M21R] gave a protein stability index of 2.23. YHSPELTTPPGHGTLDNSKSGKPY [M21G] showed a protein stability index of 2.71. Work on YHSPELTTPPGHGTLDNSKSWKPY [M21W] yielded a protein stability index of 2.14. In the case of YHSPELTTPPGHGTLDNSKSAKPY [M21A], the protein stability index is reported as 2.16. YHSPELTTPPGHGTLDNSKSYKPY [M21Y] gave a protein stability index of 1.54. For YHSPELTTPPGHGTLDNFKSMKPY [S18F], the protein stability index was 1.81. YHSPELTTPPGHGTLDNVKSMKPY [S18V] showed a protein stability index of 2.38. In the case of YHSPELTTPPGHGTLDNDKSMKPY [S18D], the protein stability index is reported as 2.06. YHSPELTTPPGHGTLDNKKSMKPY [S18K] gave a protein stability index of 2.43. YHSPELTTPPGHGTLDNCKSMKPY [S18C] gave a protein stability index of 1.81. YHSPELTTPPGHGTLDNGKSMKPY [S18G] gave a protein stability index of 2.39. YHSPELTTPPGHGTLDNLKSMKPY [S18L] showed a protein stability index of 1.74. With YHSPELTTPPGHGTLDNQKSMKPY [S18Q] the protein stability index was 2.22. YHSPELTTPPGHGTLDNYKSMKPY [S18Y] showed a protein stability index of 1.94. With YHSPELTTPPGHGTLDNNKSMKPY [S18N] the protein stability index was 2.54. For YHSPELTTPPGHGTLDNEKSMKPY [S18E], the protein stability index was 2.16. YHSPELTTPPGHGTLDNIKSMKPY [S18I] gave a protein stability index of 1.95. Work on YHSPELTTPPGHGTLDNTKSMKPY [S18T] yielded a protein stability index of 2. For YHSPELTTPPGHGTLDNPKSMKPY [S18P], the protein stability index was 2.17. In the case of YHSPELTTPPGHGTLDNWKSMKPY [S18W], the protein stability index is reported as 1.8. Work on YHSPELTTPPGHGTLDNAKSMKPY [S18A] yielded a protein stability index of 2.09. In the case of YHSPELTTPPGHGTLDNMKSMKPY [S18M], the protein stability index is reported as 1.76. Variant YHSPELTTPPGHGTLDNRKSMKPY [S18R] has a protein stability index of 2. Variant YHSPELTTPPGHGTLDNHKSMKPY [S18H] has a protein stability index of 2.04. Work on YHSPELTTPPGHGTMDNSKSMKPY [L15M] yielded a protein stability index of 1.9. Work on YHSPELTTPPGHGTWDNSKSMKPY [L15W] yielded a protein stability index of 1.82. With YHSPELTTPPGHGTTDNSKSMKPY [L15T] the protein stability index was 3.01. With YHSPELTTPPGHGTNDNSKSMKPY [L15N] the protein stability index was 2.46. Work on YHSPELTTPPGHGTIDNSKSMKPY [L15I] yielded a protein stability index of 2.17. With YHSPELTTPPGHGTFDNSKSMKPY [L15F] the protein stability index was 1.77. Variant YHSPELTTPPGHGTYDNSKSMKPY [L15Y] has a protein stability index of 2.27. YHSPELTTPPGHGTEDNSKSMKPY [L15E] gave a protein stability index of 2.12. For YHSPELTTPPGHGTSDNSKSMKPY [L15S], the protein stability index was 2.35. YHSPELTTPPGHGTGDNSKSMKPY [L15G] showed a protein stability index of 2.24. YHSPELTTPPGHGTHDNSKSMKPY [L15H] showed a protein stability index of 2.36. With YHSPELTTPPGHGTRDNSKSMKPY [L15R] the protein stability index was 2. Work on YHSPELTTPPGHGTVDNSKSMKPY [L15V] yielded a protein stability index of 2.26. YHSPELTTPPGHGTKDNSKSMKPY [L15K] gave a protein stability index of 2.2. YHSPELTTPPGHGTQDNSKSMKPY [L15Q] showed a protein stability index of 2.77.
